Our source for the luminescence after complementation (relative; unit not given) and luminescence after complementation (RLU(mutant)/RLU(WT)) values is US20140348747A1.

Assay in all cases: cell-based or functional assay
Test [1] concerns the target wild-type non-luminescent polypeptide (WT fragment of residues 1-156 of NanoLuc).
The target of another test is NLpep53-HT.
The target of the next test is NLpep9-HT.

For the substance HT-NLpep A169E, the luminescence after complementation (relative; unit not given) in test [1] stood at 0.846.
The same measure, in the same setting: the result for HT-NLpep A169L reads 1.11.
In test [1], HT-NLpep A169N had a luminescence after complementation (relative; unit not given) of 0.911.
On the same count and under the same terms, with HT-NLpep A169R the figure was 0.985.
On to HT-NLpep A169T, for which, in test [1], the luminescence after complementation (relative; unit not given) was determined as 0.945.
Regarding HT-NLpep C164N, the luminescence after complementation (relative; unit not given) in test [1] was 0.0874.
Regarding HT-NLpep C164T, the luminescence after complementation (relative; unit not given) in test [1] is 0.0116.
Still for that read-out and setting: the result for HT-NLpep G157D reads 0.114; that for HT-NLpep G157E, 0.196; that for HT-NLpep G157H, 0.938.
The same measure, in the same setting: with HT-NLpep G157N the figure was 0.641.
HT-NLpep G157S yielded a luminescence after complementation (relative; unit not given) in test [1] of 1.99.
In test [1], HT-NLpep I167E came in with a luminescence after complementation (relative; unit not given) of 0.277.
On to HT-NLpep I167F, for which the luminescence after complementation (relative; unit not given) in test [1] came out at 0.283.
Same read-out and setting: the result for HT-NLpep I167Q reads 0.0178; that for HT-NLpep I167R, 0.0464.
Take HT-NLpep I167V: the luminescence after complementation (relative; unit not given) in test [1] worked out at 0.877.
On the same count and under the same terms, with HT-NLpep L163K the figure was 0.0885.
The substance HT-NLpep L163T registered a luminescence after complementation (relative; unit not given) in test [1] of 0.0259.
In turn, HT-NLpep L163V showed a luminescence after complementation (relative; unit not given) in test [1] of 0.173.
Regarding HT-NLpep L163Y, the luminescence after complementation (relative; unit not given) in test [1] turned out to be 0.0512.
For the substance HT-NLpep R166K, the luminescence after complementation (relative; unit not given) in test [1] worked out at 1.09.
Consider HT-NLpep R166N, for which, in test [1], the luminescence after complementation (relative; unit not given) is 0.103.
HT-NLpep T159K: the luminescence after complementation (relative; unit not given) in test [1] worked out at 0.049.
In turn, HT-NLpep T159Q showed a luminescence after complementation (relative; unit not given) in test [1] of 0.398.
In turn, HT-NLpep T159V returned a luminescence after complementation (relative; unit not given) in test [1] of 0.566.
Turning to HT-NLpep V158A, the luminescence after complementation (relative; unit not given) in test [1] is 0.135.
The substance HT-NLpep V158I returned a luminescence after complementation (relative; unit not given) in test [1] of 0.608.
Same read-out and setting: the result for HT-NLpep V158K reads 0.077; that for HT-NLpep V158Q, 0.0445.
HT-NLpep V158S: the luminescence after complementation (relative; unit not given) in test [1] is 0.0487.
HT-NLpep W161K returned a luminescence after complementation (relative; unit not given) in test [1] of 0.0002.
HT-NLpep W161T showed a luminescence after complementation (relative; unit not given) in test [1] of 0.0028.
In turn, HT-NLpep W161V displayed a luminescence after complementation (relative; unit not given) in test [1] of 0.0086.
NLpep-HT A169E had a luminescence after complementation (relative; unit not given) in test [1] of 0.789.
As for NLpep-HT A169L, the luminescence after complementation (relative; unit not given) in test [1] was determined as 0.905.
In test [1], NLpep-HT A169N returned a luminescence after complementation (relative; unit not given) of 1.78.
NLpep-HT A169R showed a luminescence after complementation (relative; unit not given) in test [1] of 0.501.
In test [1], NLpep-HT A169T had a luminescence after complementation (relative; unit not given) of 1.37.
Substance NLpep-HT C164A gave a luminescence after complementation (relative; unit not given) in test [1] of 0.0858.
Take NLpep-HT C164F: the luminescence after complementation (relative; unit not given) in test [1] came out at 13.3.
In test [1], NLpep-HT C164H gave a luminescence after complementation (relative; unit not given) of 0.76.
Substance NLpep-HT C164K registered a luminescence after complementation (relative; unit not given) in test [1] of 0.0005.
Same read-out and setting: the result for NLpep-HT C164L reads 1.02; that for NLpep-HT C164M, 3.26.
In the case of NLpep-HT C164N, the luminescence after complementation (relative; unit not given) in test [1] stood at 0.108.
In test [1], NLpep-HT C164Q displayed a luminescence after complementation (relative; unit not given) of 0.0211.
Take NLpep-HT C164S: the luminescence after complementation (relative; unit not given) in test [1] turned out to be 0.0202.
The same measure, in the same setting: the result for NLpep-HT C164T reads 0.0084; that for NLpep-HT C164Y, 1.01; that for NLpep-HT G157C, 0.0468.
Take NLpep-HT G157D: the luminescence after complementation (relative; unit not given) in test [1] is 0.549.
NLpep-HT G157E displayed a luminescence after complementation (relative; unit not given) in test [1] of 1.45.
In turn, NLpep-HT G157H gave a luminescence after complementation (relative; unit not given) in test [1] of 0.573.
Turning to NLpep-HT G157N, in test [1], the luminescence after complementation (relative; unit not given) was 3.31.
In turn, NLpep-HT G157P returned a luminescence after complementation (relative; unit not given) in test [1] of 0.0543.
Consider NLpep-HT G157S, for which the luminescence after complementation (relative; unit not given) in test [1] amounted to 1.72.
On to NLpep-HT I167E, for which the luminescence after complementation (relative; unit not given) in test [1] came to 0.244.
In turn, NLpep-HT I167F yielded a luminescence after complementation (relative; unit not given) in test [1] of 0.179.
As for NLpep-HT I167Q, in test [1], the luminescence after complementation (relative; unit not given) came out at 0.117.
NLpep-HT I167R had a luminescence after complementation (relative; unit not given) in test [1] of 0.0469.
In test [1], NLpep-HT I167V displayed a luminescence after complementation (relative; unit not given) of 1.08.
The same measure, in the same setting: with NLpep-HT L163I the figure was 0.292; with NLpep-HT L163K, 0.0786; with NLpep-HT L163T, 0.0262.
Consider NLpep-HT L163V, for which, in test [1], the luminescence after complementation (relative; unit not given) amounted to 0.119.
The substance NLpep-HT L163Y showed a luminescence after complementation (relative; unit not given) in test [1] of 0.196.
In turn, NLpep-HT R166K displayed a luminescence after complementation (relative; unit not given) in test [1] of 1.21.
Same read-out and setting: the result for NLpep-HT R166N reads 0.118; that for NLpep-HT T159K, 0.0307; that for NLpep-HT T159Q, 0.031.
The same measure, in the same setting: the result for NLpep-HT T159V reads 0.0455; that for NLpep-HT V158A, 0.144.
In test [1], NLpep-HT V158I registered a luminescence after complementation (relative; unit not given) of 1.6.
In test [1], NLpep-HT V158K had a luminescence after complementation (relative; unit not given) of 0.192.
NLpep-HT V158Q returned a luminescence after complementation (relative; unit not given) in test [1] of 0.0397.
For NLpep-HT V158S, the luminescence after complementation (relative; unit not given) in test [1] stood at 0.0838.
Turning to NLpep-HT W161E, the luminescence after complementation (relative; unit not given) in test [1] amounted to 0.0012.
On to NLpep-HT W161F, for which the luminescence after complementation (relative; unit not given) in test [1] was determined as 0.0717.
Substance NLpep-HT W161K came in with a luminescence after complementation (relative; unit not given) in test [1] of 0.0008.
Regarding NLpep-HT W161T, the luminescence after complementation (relative; unit not given) in test [1] came to 0.01.
Still for that read-out and setting: with NLpep-HT W161V the figure was 0.005.
Consider NLpep-HT W161Y, for which the luminescence after complementation (relative; unit not given) in test [1] was 0.215.
For the substance NLpoly D108N, the luminescence after complementation (RLU(mutant)/RLU(WT)) with NLpep53-HT was 1.88; in the test with NLpep9-HT, 2.08.
In the case of NLpoly F31I, the luminescence after complementation (RLU(mutant)/RLU(WT)) in the test with NLpep53-HT is 2.83; with NLpep9-HT it was 4.1.
For NLpoly F31L, in that order: 2.86 and 3.13.
For NLpoly F31V the same measures were 2.12 and 2.12.
Take NLpoly G15S: the luminescence after complementation (RLU(mutant)/RLU(WT)) with NLpep53-HT amounted to 2.34; in the test with NLpep9-HT it was 1.98.
As for NLpoly G67D, the luminescence after complementation (RLU(mutant)/RLU(WT)) worked out at 1.57 in the test with NLpep53-HT and 1.78 with NLpep9-HT.
With NLpoly G67S, the results for the luminescence after complementation (RLU(mutant)/RLU(WT)) with NLpep53-HT and with NLpep9-HT were 1.29 and 1.22, respectively.
Regarding NLpoly I56N, the luminescence after complementation (RLU(mutant)/RLU(WT)) in the test with NLpep53-HT came to 1.81; with NLpep9-HT, 0.44.
For NLpoly I59T, in that order: 1.35 and 1.07.
Regarding NLpoly K75E, the luminescence after complementation (RLU(mutant)/RLU(WT)) with NLpep53-HT was determined as 2.05; with NLpep9-HT it was 2.08.
NLpoly L18Q: the luminescence after complementation (RLU(mutant)/RLU(WT)) in the test with NLpep53-HT is 2.99; with NLpep9-HT it was 3.81.
For the substance NLpoly L149M, the luminescence after complementation (RLU(mutant)/RLU(WT)) in the test with NLpep53-HT came out at 2.16; in the test with NLpep9-HT, 2.89.
As to NLpoly M106I, the luminescence after complementation (RLU(mutant)/RLU(WT)) with NLpep53-HT was determined as 1.31; in the test with NLpep9-HT, 1.27.
Turning to NLpoly M106V, the luminescence after complementation (RLU(mutant)/RLU(WT)) was determined as 1.4 with NLpep53-HT and 1.3 in the test with NLpep9-HT.
For NLpoly N33K the same measures were 1.76 and 2.15.
For NLpoly N33R the same measures were 1.56 and 2.1.
For NLpoly N144T, in that order: 2.26 and 3.69.
NLpoly N156D: the results for the luminescence after complementation (RLU(mutant)/RLU(WT)) with NLpep53-HT and in the test with NLpep9-HT were 1.21 and 1.57, respectively.
For NLpoly N156S the same measures were 1.4 and 1.04.
In the case of NLpoly Q20K, the luminescence after complementation (RLU(mutant)/RLU(WT)) was 2.33 with NLpep53-HT and 4.43 with NLpep9-HT.
For NLpoly Q32R the same measures were 1.04 and 1.52.
On to NLpoly R11N, for which the luminescence after complementation (RLU(mutant)/RLU(WT)) in the test with NLpep53-HT turned out to be 2.09; with NLpep9-HT, 3.37.
With NLpoly R112N, the luminescence after complementation (RLU(mutant)/RLU(WT)) in the test with NLpep53-HT stood at 1.45; with NLpep9-HT, 1.61.
Turning to NLpoly T13I, the luminescence after complementation (RLU(mutant)/RLU(WT)) stood at 1.44 with NLpep53-HT and 2.18 with NLpep9-HT.
As to NLpoly V27M, the figures for the luminescence after complementation (RLU(mutant)/RLU(WT)) with NLpep53-HT and with NLpep9-HT were 1.7 and 1.99, respectively.
